Data reported in patent publication US20040161826A1, “Thermostable enzymes having aminotransferase activity, nucleic acids encoding them and methods of making and using them” (priority 1999, published 2004).

What was measured:
[1] = target: aromatic amino acid aminotransferase (Pyrococcus horikoshii, UniProt O59096); experiment: Amino group transfer reaction with phenylalanine as donor, phenylpyruvic acid traced at 280 nm; type: biochemical, Pyrococcus horikoshi; conditions: receptor 2-ketoglutaric acid, pH 8.0, 25° C.
Experimental: Then, kinetic parameters of each substrate were compared. […] Next, a change in the amount of NADH was traced with a change in absorbance at 340 nm, and then kinetic parameters, Kcat and Km values were measured.
When hydrophobic substrate (phenylalanine) was used as an amino group donor, the amount of reaction product (phenylpyruvic acid) was traced with a change in absorbance at 280 nm, and then Kcat and Km values were measured.

[2] = substrate: N[C@@H](CC(=O)O)C(=O)O; experiment: purified protein, by the assay type; conditions: other: amino group donor aspartic acid, receptor 2-ketoglutaric acid, pH 8.0, 25° C.
[3] = Thermal stability: differential scanning calorimeter (DSC); type: physicochemical, Pyrococcus horikoshi
Experimental: Thermal stability was analyzed by measurement of residual activity after heating and with a differential scanning calorimeter (DSC).
In measurement with DSC, a DSC (type CSC5100™, Calolimetry Science) was used. Cell temperature was increased from 0 to 125° C. (1 K/min), and then a change in thermal capacity of the enzyme protein in 20 mM phosphate buffer (pH6.5) was measured. Enzyme concentration employed was 1 mg/ml.

[4] = Optimum temperature and optimum pH from Kapp, DTNB reduction traced at 412 nm; type: biochemical, Pyrococcus horikoshi; conditions: substrates L-cysteic acid and 2-ketoglutaric acid
Experimental: The presence of aminotransferase activity can be determined by any means.
Optimum temperature and optimum pH were measured as described below using L-cysteic acid and 2-ketoglutaric acid as substrates. Optimum temperature was determined according to the temperature dependence of the Kapp value which was determined by varying the reaction temperature from 30° C. to 98° C. in 50 mM phosphate buffer (pH6.5), tracing an increase in absorbance at 412 nm resulting from reduction of 5,5′-Dithiobis ([…]) (DTNB), finding Kapp value from the initial velocity.
Optimum pH was determined according to pH dependence of the Kapp value which was determined under the measurement conditions as described above by maintaining the reaction temperature at 90° C., and varying the pH of an enzyme reaction solution from 3.4 to 7.5, finding Kapp.

[5] = Thermal stability: residual activity after heating; type: physicochemical, Pyrococcus horikoshi; conditions: pH 6.5, 95° C. for 6 hours, 0.1 mg/ml in 20 mM phosphate buffer
Experimental: Thermal stability was analyzed by measurement of residual activity after heating and with a differential scanning calorimeter (DSC). To measure residual activity after heating, this enzyme (0.1 mg/ml) was heated for a certain period of time at 95° C. and at 110° C. in 20 mM phosphate buffer (pH6.5) and quenched. Then, residual activity was measured.

Isoelectric focusing = type: physicochemical, Pyrococcus horikoshi
[6] = pH stability by circular dichrograph (CD); type: physicochemical, Pyrococcus horikoshi; conditions: 25° C.
Experimental: pH stability was analyzed using a circular dichrograph (CD, type J-720W, JASCO Corporation). The pH of an enzyme solution (0.1 mg/ml) was varied from 1.0 to 13.0, a change in intensity of negative ellipicity[q] at 25° C. was measured, so that pH stability was found.

For N[C@@H](Cc1ccccc1)C(=O)O [phenylalanine], the Kcat [1] was 12 s⁻¹.

B1: aromatic amino acid aminotransferase (Pyrococcus horikoshii OT3) (protein)
chain: MALSDRLELVSASEIRKLFDIAAGMKDVISLGIGEPDFDTPQHIKEYAKEALDKGLTHYGPNIGLLELREAIAEKLKKQNGIEADPKTEIMVLLGANQAFLMGLSAFLKDGEEVLIPTPAFVSYAPAVILAGGKPVEVPTYEEDEFRLNVDELKKYVTDKTRALIINSPCNPTGAVLTKKDLEEIADFVVEHDLIVISDEVYEHFIYDDARHYSIASLDGMFERTITVNGFSKTFAMTGWRLGFVAAPSWIIERMVKFQMYNATCPVTFIQYAAAKALKDERSWKAVEEMRKEYDRRRKLVWKRLNEMGLPTVKPKGAFYIFPRIRDTGLTSKKFSELMLKEARVAVVPGSAFGKAGEGYVRISYATAYEKLEEAMDRMERVLKERKLV
Molecule B1 has a kcat [2] of 0.18 s⁻¹ and a kcat/Km [2] of 1.7 M⁻¹ s⁻¹.

B2: this enzyme: thermostable aminotransferase of Pyrococcus horikoshi JCM9974, 388 residues, homodimeric, expressed recombinantly in E. coli (protein, listed as Pyrococcus horikoshi)
chain: MALSDRLELVSASEIRKLFDIAAGMKDVISLGIGEPDFDTPQHIKEYAKEALDKGLTHYGPNIGLLELREAIAEKLKKQNGIEADPKTEIMVLLGANQAFLMGLSAFLKDGEEVLIPTPAFVSYAPAVILAGGKPVEVPTYEEDEFRLNVDELKKYVTDKTRALIINSPCNPTGAVLTKKDLEEIADFVVEHDLIVISDEVYEHFIYDDARHYSIASLDGMFERTITVNGFSKTFAMTGWRLGFVAAPSWIIERMVKFQMYNATCPVTFIQYAAAKALKDERSWKAVEEMRKEYDRRRKLVWKRLNEMGLPTVKPKGAFYIFPRIRDTGLTSKKFSELMLKEARVAVVPGSAFGKAGEGYVRISYATAYEKLEEAMDRMERVLKERKLV
With B2 the denaturation ([3]; DSC, pH 6.5) was “irreversible”, the enthalpy change ([3]; at the melting temperature, pH 6.5) was 574 kcal/mol and the “melting temperature (Tm value)” value ([3]; pH 6.5, 20 mM phosphate buffer, 1 mg/ml, 1 K/min) was 120.1 °C. For the same molecule, the optimum temperature ([4]; 50 mM phosphate buffer pH 6.5, 30° C. to 98° C.) was 90 °C, the “optimum pH” value ([4]; 90° C., pH 3.4 to 7.5) was 6.0 and the Kapp value ([4]; pH 6.5, 90° C.) was 139 s⁻¹. For the same molecule, the “residual activity after heating” value [5] was “remained stable, or was not deactivated”, the isoelectric point (Isoelectric focusing) was 5.2 and the “pH range over which the enzyme remains stable” value ([6]; for 24 hours or more, 0.1 mg/ml) was 4 to 11. For the same molecule, the a-helix content ([6]; pH 6.5) was 40%.
